According to patent publication US8445662B2, “Mycobacterium tuberculosis fusion protein and uses thereof” (The 309th Hospital, The People's Liberation Army, priority 2006, dated 2013):

Conditions: guinea pig, in vivo

Bovine serum albumin (BSA): positive control group in the guinea pig anaphylaxis test
Averaged weight (g), during excitation: 447.1 ± 41.4 g
Averaged weight (g), sensitized upon the last injection: 380.6 ± 23.6 g
Reaction level + (number of guinea pigs): 0
Reaction level ++ (number of guinea pigs): 0
Reaction level +++ (number of guinea pigs): 3
Reaction level ++++ (number of guinea pigs): 0
Reaction level − (number of guinea pigs): 3
